{"source": "the nanobody polyreactivity screen of Harvey et al. (2022)"}
{"assay": "yeast display, Sf9 membrane polyspecificity reagent, FACS + sequencing; frameworks hold sequencing errors", "method_in_brief": "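A synthetic nanobody library was expressed on Saccharomyces cerevisiae BJ5465 by galactose induction for 36–48 hours. The library was stained for 1 hour at 4 °C with 10% biotinylated, detergent-solubilized Sf9 membrane reagent and enriched with streptavidin microbeads before FACS. Low and high (top ~1%) gates were set on anti-HA fluorescence for expression and streptavidin fluorescence for reagent binding, and each polyreactivity label reflects the gate of origin.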"}
{"sequence": "QVQLVESGGGLVQAGGSLRLSCAASGSTFGGYAMGWYRQAPGKERELVAAISNGDRTNYADSVKGRFTISRDNAKNTVYLQMNSLKPEDTAVYYCATQPLTWSSYRWDWRAQFDHWGQGTQVTVSS", "polyreactivity (PSR sort gate)": "low polyreactivity"}
{"sequence": "QVQLVESGGGLVQAGGSLRLSCAASGSTFGGYAMGWYRQAPGKERELVAAITYSGGSTYYADSVKGRFTISRDNAKNTVYLQMNSLKPEVTAVYYCNADDDDALPWWWPYVLDVDYWGQGTQVTVSS", "polyreactivity (PSR sort gate)": "low polyreactivity"}
{"sequence": "QVQLVESGGGLVQAGGSLRLSCAASGSTFGGYVMGWYRQAPGKERELVAAIRRVGRTYYADSVKGRFTISRDNAKNTVYLQMNSLKPEDTAVYYCAKDNWVNYDDSHDSWGQGTQVTVSS", "polyreactivity (PSR sort gate)": "low polyreactivity"}
{"sequence": "QVQLVESGGGLVQAGGSLRLSCAASGSTFGHYAMGWYRPAPGKERELVAVISRSGARTYYADSVKGRYTISRDNAKNTVYLQMNSLKPEDTAVYYCNAGPYGGNPFDYWGQGTQVTVSS", "polyreactivity (PSR sort gate)": "high polyreactivity"}
{"sequence": "QVQLVESGGGLVQAGGSLRLSCAASGSTFGHYAMGWYRQAPGKERELVAAISWSGASTYYADSVKGRFTISRDNAKNTVYLQMNSLKPEDTAVYYCAAESYRQTYYVGDGYEDDYWGQGTQVTVSS", "polyreactivity (PSR sort gate)": "low polyreactivity"}
{"sequence": "QVQLVESGGGLVQAGGSLRLSCAASGSTFGHYGMGWYRQAPGKERELVAAISYSGGSTSYADSVKGRFTISRDNAKNTVYLQMNSLKPEDTAVYYCATVRKRRYDYWGQGTQVTVSS", "polyreactivity (PSR sort gate)": "low polyreactivity"}
{"sequence": "QVQLVESGGGLVQAGGSLRLSCAASGSTFGHYVMGWYRQATGKERELVAAISYNGGSTYYADSVKGRFTISRDNAKNTVYLQMNSLKPEDTAVYSCAARGSYSFYRRVDYWGQGTQVTVSS", "polyreactivity (PSR sort gate)": "high polyreactivity"}
{"sequence": "QVQLVESGGGLVQAGGSLRLSCAASGSTFGKYAMGWYRQAPGKERELVAAITTGGNTSYADSVKGRFTISRDNANNTVYLQMNSLKPEDTAVYYCNAKRSFRVDYWGQGTQVTVSS", "polyreactivity (PSR sort gate)": "low polyreactivity"}
{"sequence": "QVQLVESGGGLVQAGGSLRLSCAASGSTFGKYAMGWYRQAPGKERELVAAITTGGNTYYADSVKGRFTISRDNAKNSVYLQMNSLKPEDTAVYYCNAKRSFRVDYWGQGTQVTVSS", "polyreactivity (PSR sort gate)": "low polyreactivity"}
{"sequence": "QVQLVESGGGLVQAGGSLRLSCAASGSTFGKYAMGWYRQAPGKERELVATITVSGGNTNYADSVKGRFTISRDNAKNTVYLQMNSLKPEDTAVYYCAARNYVAGHKYIMNYWGQGTQVNVSS", "polyreactivity (PSR sort gate)": "low polyreactivity"}
{"sequence": "QVQLVESGGGLVQAGGSLRLSCAASGSTFGLNAMGWYRQAPGKERELVAAISYSDTTTYYADSVKGRFTISRDNAKNTVYLQMNSLKPEDTAVYYCAAEGDYAFLYDYWGQGTQVTVSS", "polyreactivity (PSR sort gate)": "high polyreactivity"}
{"sequence": "QVQLVESGGGLVQAGGSLRLSCAASGSTFGLYAMGWYIQAPGKERELVAAISSRGSRTYYADSVKGRFTISRDNAKNTVYLQLNSLIPEDTAVYYCNALYASSVRHKVTYDYWGQGTQVTVSS", "polyreactivity (PSR sort gate)": "high polyreactivity"}
{"sequence": "QVQLVESGGGLVQAGGSLRLSCAASGSTFGLYAMGWYRQAPGKERELVAAISYNTGRTYYADSVKGRFTISRDNAKNTVYLQMNSLKPEDTAVYYCAAEYFIWSYTRYEYWGQGTQVTVSS", "polyreactivity (PSR sort gate)": "high polyreactivity"}
{"sequence": "QVQLVESGGGLVQAGGSLRLSCAASGSTFGNNAMGWYRPAPGKERELVAGIRRSSNTYYADSVKGRFTISRDNAKNTVYLQMNSLKPEDTAVYCCNADNILYGSTLDYWGQGTQVTVSS", "polyreactivity (PSR sort gate)": "low polyreactivity"}
{"sequence": "QVQLVESGGGLVQAGGSLRLSCAASGSTFGNYAMGWYRQAPGKERELVAAISTSGGSTYYADSVKRRFTISRDNAKNTVYLQMNSLKPEDTAVYYCAKRLVRVRSRAVSDYYWGQGTQVTVSS", "polyreactivity (PSR sort gate)": "high polyreactivity"}
{"sequence": "QVQLVESGGGLVQAGGSLRLSCAASGSTFGNYAMGWYRQAPGKERELVAVITSAGSTYYADSVKGRFTISRDNAKNTVYLQMNSLKPDDTAVYYCNTGKHVRYYYWGQGTQVTVSS", "polyreactivity (PSR sort gate)": "low polyreactivity"}
{"sequence": "QVQLVESGGGLVQAGGSLRLSCAASGSTFGPNAMGWYRQAPGKERELVATITYSGGSTYYADSVKGRFTISRDNAKNTVYLQMNSLKPEDTAVYYCAAVYRYSRFTYGYWGQGTQVTVSS", "polyreactivity (PSR sort gate)": "high polyreactivity"}
{"sequence": "QVQLVESGGGLVQAGGSLRLSCAASGSTFGPNPMGWYRQAPGKERELVAAISRAGRTYYADSVKGRFTISRDNAKNTVYLQMNSLKPEDTAVYYCNAGRSYHWRAGGEYDYWGQGTQVTVSS", "polyreactivity (PSR sort gate)": "low polyreactivity"}
{"sequence": "QVQLVESGGGLVQAGGSLRLSCAASGSTFGPYAMGWYRQAPGKERELVAAISSGGSTYADSVKGRFTISRDNAKNTVYLQMNSLKPEDTAVYYCAKVHGRGVYSVEYDYWVQGTQVTVSS", "polyreactivity (PSR sort gate)": "low polyreactivity"}
{"sequence": "QVQLVESGGGLVQAGGSLRLSCAASGSTFGPYAMGWYRQAPGKERELVAGISYGGGTTFYADSVKGRFTISRDNAKNTVYLQMNSLKPEDTAVYYCAATYRPNRYLEGYWGQGTQVTVSS", "polyreactivity (PSR sort gate)": "high polyreactivity"}
{"sequence": "QVQLVESGGGLVQAGGSLRLSCAASGSTFGPYAMGWYRQAPGKERELVATINSSGSTNYADSVKGRFTISRDNAKNTVYLQMKSLKPEDTAVYYCATLHYYYWYDYWGQGTQVTVSS", "polyreactivity (PSR sort gate)": "low polyreactivity"}
{"sequence": "QVQLVESGGGLVQAGGSLRLSCAASGSTFGPYAMGWYRQAPGKERELVATISGSRSSTYYADSVKGRFTISRDNAKNTVYLQMNSLKPEDTAVYYCATDLYFDLRYDYWGQGTQVTVSS", "polyreactivity (PSR sort gate)": "low polyreactivity"}
{"sequence": "QVQLVESGGGLVQAGGSLRLSCAASGSTFGRNAMGWYRQAPGKERELVAAISWRSTRTYYADSVKGRFTISRDNAKNTVYLQMNSLKPEDTAVYYCAAAWRIWWYHRGEFDYWGQGTQVTVSS", "polyreactivity (PSR sort gate)": "high polyreactivity"}
{"sequence": "QVQLVESGGGLVQAGGSLRLSCAASGSTFGRNAMGWYRQAPGKERELVATITKSGGSTYYADSVKGRFTISRDNAKNTVYLQMNSLKPEDTAVYYCAKGVYYKVLRGGGDYWGQGTQVTVSS", "polyreactivity (PSR sort gate)": "high polyreactivity"}
{"sequence": "QVQLVESGGGLVQAGGSLRLSCAASGSTFGRNTMGWYRQAPGKERELVAAITSGDTTTYADSVKGRFTISRDNAKNTVYLQMNSLKPEVTAVYYCAVDPVRGRDYSWMDYWGQGTQVTVSS", "polyreactivity (PSR sort gate)": "low polyreactivity"}
{"sequence": "QVQLVESGGGLVQAGGSLRLSCAASGSTFGRYAMGWYRQAPGKEREFVAAISCSGGSTYYADSVKGRFTISRDNAKNTVYLQMNSLNPEDTAVYYWARYSWRGLAEFESWGQGTQVTVSS", "polyreactivity (PSR sort gate)": "low polyreactivity"}
{"sequence": "QVQLVESGGGLVQAGGSLRLSCAASGSTFGRYAMGWYRQAPGKERELFAAISWSGGSTYYADSVKGRFTISRDNAKNTVYLQMNSLKPEDTAVYYCNKAGIYIYGSYYWGQGTQVTVSS", "polyreactivity (PSR sort gate)": "high polyreactivity"}
{"sequence": "QVQLVESGGGLVQAGGSLRLSCAASGSTFGRYAMGWYRQAPGKERELVAAITTSGGRTRYADSVKGRFTISRDNAKNPVYLQMNSLKPEDTAVYYCAASGAQGPDYDYWGQGTQVTVSS", "polyreactivity (PSR sort gate)": "low polyreactivity"}
{"sequence": "QVQLVESGGGLVQAGGSLRLSCAASGSTFGRYAMGWYRQAPGKERELVATIDGSDGSTFYADSVKGRFTISRDNAKNTVYLQMNSLKPEDTAVYYCAAAWYDGYYYLVYYWGQGTQVTVSS", "polyreactivity (PSR sort gate)": "low polyreactivity"}
{"sequence": "QVQLVESGGGLVQAGGSLRLSCAASGSTFGRYAMGWYRQAPGKESELVAAISSSGGRTYYADSVKGRFTISRDNAKNTVYLQMNSLKPEDTAVYYCAAPGAQGLGLRGAGLDYWGQGTQVTVSW", "polyreactivity (PSR sort gate)": "high polyreactivity"}
{"sequence": "QVQLVESGGGLVQAGGSLRLSCAASGSTFGRYAMGWYRQATGKEMELVAAITRSGGRTYYADSVKGRFTISRDNAKNNVYLQMNSLKPEDTAVYYCAAVGNLYYTSHWQYDYWGQGTQVTVSS", "polyreactivity (PSR sort gate)": "high polyreactivity"}
{"sequence": "QVQLVESGGGLVQAGGSLRLSCAASGSTFGRYTMGWYRQAPRKERELVAAITSGGGSTYYADSVKGRFTISRDNAKNTVYLQMNSLKPEDTAVYYCAARSLVQDHAYGYNYWGQGTQVTVSS", "polyreactivity (PSR sort gate)": "low polyreactivity"}
{"sequence": "QVQLVESGGGLVQAGGSLRLSCAASGSTFGRYVMGWYRQAPGKERELVAAISKNAGSTYYADSVKGRFTISRDNAKNTVYLHMNSLKPEDTAVYYCAADWRTKGYDSLGQGTQVTVSS", "polyreactivity (PSR sort gate)": "high polyreactivity"}
{"sequence": "QVQLVESGGGLVQAGGSLRLSCAASGSTFGRYVMGWYRQAPGKERELVAAISKNAGSTYYADSVKGRFTISRDNAKNTVYLQMNRLKPEDTAVYYCAADWRTKGYDSLGQGTQVTVSS", "polyreactivity (PSR sort gate)": "high polyreactivity"}
{"sequence": "QVQLVESGGGLVQAGGSLRLSCAASGSTFGSNAMGWYRQAPGKERELVAAITNGGSTNYADSVKGRFTISRDNAKNTVYLQMHSLKPEDTAVYYCNADPQQSKLWTYFFGFPGYYWGQGTQVTVSS", "polyreactivity (PSR sort gate)": "low polyreactivity"}
{"sequence": "QVQLVESGGGLVQAGGSLRLSCAASGSTFGSNAMGWYRQAPGKERELVAAITRRGGSTYYADSVKGRFTISRDKAKNTVYLQMNSLKPEDTAVYYCAAQIHPRRDYSAFDYWGQGTQVTVSS", "polyreactivity (PSR sort gate)": "low polyreactivity"}
{"sequence": "QVQLVESGGGLVQAGGSLRLSCAASGSTFGSYAMGWYRQAPGKVRELVASIRSSGTSTYYADSVKGRFTISRDNAKNTVYLQMNSLKPEDTAVYYCAKRYFTWRSTYNYWGQGTQVTVSS", "polyreactivity (PSR sort gate)": "high polyreactivity"}
{"sequence": "QVQLVESGGGLVQAGGSLRLSCAASGSTFGSYAMGWYRQAPGTERELVAAISRAGSTYADSVKGRFTISRDNAKNTVYLQMHSLKPEDTAVYYCANRDNALYYGYDYWGQGTQVTVSS", "polyreactivity (PSR sort gate)": "low polyreactivity"}
{"sequence": "QVQLVESGGGLVQAGGSLRLSCAASGSTFGSYTMGWYRQAPGKERELVAAINWSGGNTYYADSVKGRFTISRDNAKNTVYLQINSLKPEDTAVYYCAAAFYIYGVEGDYWGQGTQVTVSS", "polyreactivity (PSR sort gate)": "low polyreactivity"}
{"sequence": "QVQLVESGGGLVQAGGSLRLSCAASGSTFGTYAMGWSRQAPGKERELVAAITSGGSTDYADSVKGRFTISRDNAKNTVYLQMNSLKPEDTAVYYCNATWELLSYYYLFWGYDYWGQGTQVTVSS", "polyreactivity (PSR sort gate)": "low polyreactivity"}
{"sequence": "QVQLVESGGGLVQAGGSLRLSCAASGSTFGTYAMGWYRQAPGKERELVAAISRRGGSTYYADSVKGRFTISRDNAKNTVYLQMNSLKTEDTAVYYCAARKFHPDDNYWGQGTQVTVSS", "polyreactivity (PSR sort gate)": "high polyreactivity"}
{"sequence": "QVQLVESGGGLVQAGGSLRLSCAASGSTFGTYAMGWYRQAPGKERELVATISIGGITYYADSVKGRFTISRDNAKNTVYLQMNSLKPEDTAVYYCAKDVTDPTSRSDPSGDDYWGQGTQVTVSS", "polyreactivity (PSR sort gate)": "low polyreactivity"}
{"sequence": "QVQLVESGGGLVQAGGSLRLSCAASGSTFGTYAMGWYRQEPGKERELVAAIRWSGVSTYYADSVKGRFTISRDNAKNTVYLQMNSLKPEDTAVYYCAVALWVRGTYIYEYWGQGTQVTVSS", "polyreactivity (PSR sort gate)": "high polyreactivity"}
